The results in this text go back to US20070141062A1 (published 2007).

Test [1] deals with T1, Retinoblastoma protein (Rb), endogenous in the cells used (UniProt P06400 2-928).
T1 construct: also called endogenous Rb; total Rb
T1 sequence (looked up): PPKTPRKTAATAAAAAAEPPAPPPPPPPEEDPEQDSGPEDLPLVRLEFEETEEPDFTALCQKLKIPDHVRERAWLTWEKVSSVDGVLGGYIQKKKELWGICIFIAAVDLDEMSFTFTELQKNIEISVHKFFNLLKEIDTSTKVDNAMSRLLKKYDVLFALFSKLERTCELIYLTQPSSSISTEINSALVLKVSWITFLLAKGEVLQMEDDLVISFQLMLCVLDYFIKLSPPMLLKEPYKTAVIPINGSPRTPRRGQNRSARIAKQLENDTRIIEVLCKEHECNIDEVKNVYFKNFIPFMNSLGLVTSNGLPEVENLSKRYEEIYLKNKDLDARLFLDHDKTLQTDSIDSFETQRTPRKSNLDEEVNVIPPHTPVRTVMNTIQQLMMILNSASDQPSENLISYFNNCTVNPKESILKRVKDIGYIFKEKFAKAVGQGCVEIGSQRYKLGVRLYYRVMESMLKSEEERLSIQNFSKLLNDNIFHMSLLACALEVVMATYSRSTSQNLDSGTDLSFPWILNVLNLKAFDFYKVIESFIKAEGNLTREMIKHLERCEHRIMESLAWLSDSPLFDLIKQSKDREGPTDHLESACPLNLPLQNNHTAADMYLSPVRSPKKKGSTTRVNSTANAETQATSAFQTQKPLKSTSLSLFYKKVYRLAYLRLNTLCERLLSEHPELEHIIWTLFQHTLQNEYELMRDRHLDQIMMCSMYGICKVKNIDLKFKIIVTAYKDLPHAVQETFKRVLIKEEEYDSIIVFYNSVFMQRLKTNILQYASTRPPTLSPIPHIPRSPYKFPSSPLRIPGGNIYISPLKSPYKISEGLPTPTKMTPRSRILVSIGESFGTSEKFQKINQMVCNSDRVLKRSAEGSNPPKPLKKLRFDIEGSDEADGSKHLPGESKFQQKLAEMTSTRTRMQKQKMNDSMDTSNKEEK
In words: IP with anti-Rb (G99-2005) from transfected HEK 293 extracts, anti-V5 western. The procedure:
(§1) Immunoprecipitation and Immunoblotting-1×10⁶ HEK 293 cells were seeded onto a T-150 flask. 24 hours later, cells were transfected with 15 μg of the indicated plasmids. 48 hrs post transfection, cells were harvested, washed twice with cold PBS, and lysed with MPER (Pierce) containing 1× protease inhibitor cocktail (HALT, Pierce). Lysates were centrifuged at 4° C. for 30 minutes at 16,000 g to remove particulate material. The supernatant was precleared for 2 hours with protein A-agarose (Roche). The pre-cleared cell lysates were mixed with the indicated antibodies and protein A- or protein G-agarose (Roche) and incubated at 4° C. overnight. The next day, the reaction mixture was washed three times with cold PBS, boiled for 3 minutes and eluted in 2×SDS buffer. The eluted materials were subsequently analyzed by immunoblotting with the indicated antibodies.
While pp32 inhibits transformation, pp32r1 (ANP32C) and pp32r2 (ANP32D), both highly homologous to pp32 at the protein level (87.7% and 89.3% respectively) are tumorigenic (Kadkol, S. S., Brody, J. R., Pevsner, J., Bai, J., and Pasternack, G. R. (1999) Nature Med. 5, 275-279). Therefore, the possibility of an interaction between these family members and Rb was explored. pp32r1 and r2 were V5-epitope tagged and overexpressed in HEK 293 cells. HEK 293 cells were transfected with pp32V5, pp32r1V5, pp32r2V5 or LacZV5 expression vectors as indicated. Equal amounts of cell extracts were precipitated with anti-Rb (G99-2005) antibody and analysed by western blotting with anti-V5 antibody. Equal amounts of cell lysates were immunoprecipitated with anti-Rb and immunoblotted with anti-V5.

Test [2] addresses T2, PSM2T-LP (double T821A/T826A large pocket mutant of RB) (UniProt P06400 379-928).
T2 construct: range 379-928; Expressed by cotransfection in HEK 293 cells
T2 sequence (looked up): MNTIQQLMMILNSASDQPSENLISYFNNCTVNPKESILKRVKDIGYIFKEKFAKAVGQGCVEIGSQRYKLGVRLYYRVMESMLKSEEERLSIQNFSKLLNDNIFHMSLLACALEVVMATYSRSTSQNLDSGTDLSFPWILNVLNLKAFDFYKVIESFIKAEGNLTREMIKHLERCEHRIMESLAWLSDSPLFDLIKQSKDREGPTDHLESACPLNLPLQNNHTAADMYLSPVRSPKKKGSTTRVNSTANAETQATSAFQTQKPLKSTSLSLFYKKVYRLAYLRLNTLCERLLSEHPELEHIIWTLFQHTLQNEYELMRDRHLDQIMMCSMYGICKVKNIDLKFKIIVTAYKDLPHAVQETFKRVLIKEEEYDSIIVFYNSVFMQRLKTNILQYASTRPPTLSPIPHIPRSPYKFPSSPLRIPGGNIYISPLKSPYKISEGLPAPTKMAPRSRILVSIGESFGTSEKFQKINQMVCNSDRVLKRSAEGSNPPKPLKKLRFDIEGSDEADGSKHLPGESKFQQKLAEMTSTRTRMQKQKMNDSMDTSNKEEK
In words: cotransfection in HEK 293, IP with anti-V5, western with anti-Rb (851).
Text: (§2) Equal amounts of cell extracts were precipitated with anti-V5 antibody. Upper panel, the presence of WT-LP or PSM2T-LP in immunoprecipitates was probed by western blot analysis using anti-Rb antibody (851). The right-hand arrow indicates the position of the Rb large pocket fragment. The lower band present in all three lanes is immunoglobulin heavy chain, which serves as a loading control. Middle panel, anti-V5 immunoprecipitates were subjected to western blot analysis with anti-V5 antibody to confirm pp32V5 immunoprecipitation. Lower panel, cell extracts were subjected to western blotting with anti-Rb antibody (851) to confirm expression of WT-LP and PSM2T-LP.
as §1, with “The next day, the reaction mixture was washed three times with cold PBS, boiled for 3 minutes and eluted in 2×SDS buffer.” left out, “antibodies. […]” for “antibodies.”

Test [3] has as its target T3, WT-LP (wild-type large pocket fragment of RB, amino acids 379-928) (UniProt P06400 379-928).
T3 construct: range 379-928; Expressed by cotransfection in HEK 293 cells; Construct from Knudsen et al., 1996; also called Rb large pocket fragment
T3 sequence (looked up): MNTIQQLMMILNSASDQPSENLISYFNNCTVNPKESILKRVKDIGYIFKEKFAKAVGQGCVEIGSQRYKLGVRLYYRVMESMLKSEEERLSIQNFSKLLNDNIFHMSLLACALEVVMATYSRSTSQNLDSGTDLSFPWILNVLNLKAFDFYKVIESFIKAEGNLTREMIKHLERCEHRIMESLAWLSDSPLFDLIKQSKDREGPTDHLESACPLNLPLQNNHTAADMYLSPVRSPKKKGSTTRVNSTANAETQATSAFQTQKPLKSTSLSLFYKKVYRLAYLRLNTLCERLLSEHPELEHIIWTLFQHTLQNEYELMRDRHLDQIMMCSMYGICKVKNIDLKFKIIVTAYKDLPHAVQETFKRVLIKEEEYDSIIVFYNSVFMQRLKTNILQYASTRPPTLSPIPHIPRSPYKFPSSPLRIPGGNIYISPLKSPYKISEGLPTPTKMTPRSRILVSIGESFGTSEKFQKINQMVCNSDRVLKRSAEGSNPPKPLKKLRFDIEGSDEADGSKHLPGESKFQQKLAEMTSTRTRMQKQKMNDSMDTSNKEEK
The test is described as above.
Text: as §2
as §1, with “The next day, the reaction mixture was washed three times with cold PBS, boiled for 3 minutes and eluted in 2×SDS buffer.” left out, “antibodies. […]” for “antibodies.”

B1: pp32r1V5 (V5-epitope tagged pp32r1, ANP32C) (other, UniProt O43423 1-234, looked up, not shown: small tags and cut ends)
chain: MEMGRRIHSELRNRAPSDVKELALDNSRSNEGKLEALTDEFEELEFLSKINGGLTSISDLPKLKLRKLELRVSGGLEVLAEKCPNLTHLYLSGNKIKDLSTIEPLKQLENLKSLDLFNCEVTNLNDYGENVFKLLLQLTYLDSCYWDHKEAPYSDIEDHVEGLDDEEEGEHEEEYDEDAQVVEDEEGEEEEEEGEEEDVSGGDEEDEEGYNDGEVDGEEDEEELGEEERGQKRK
notes: Overexpressed in HEK 293 cells
As to B1, in test [1], the binding result was “no binding”.

B2: pp32Δ201-360V5 (other, not shown: small tags and cut ends)
chain: MEMGRRIHLELRNRTPSDVKELVLDNSRSNEGKLEGLTDEFEELEFLSTINVGLTSIANLPKLNKLFNCEVTNLNDYRENVFKLLPQLTYLDGYDRDDKEAPDSDAEGYVEGLDDEEEDEDEEEYDEDAQVVEDEEDEDEEEEGEEEDVSGEEEEDEEGYNDGEVDDEEDEEELGEEERGQKRKREPEDEGEDDD
notes: also called pp32D201-360V5
Regarding B2, the binding result in test [1] is recorded as “no binding”.

B3: pp32r2V5 (V5-epitope tagged pp32r2, ANP32D) (other, UniProt O95626 1-131, looked up, not shown: small tags and cut ends)
chain: MEMGKWIHLELRNRTPSDVKELFLDNSQSNEGKLEGLTDEFEELELLNTINIGLTSIANLPKLNKLKKLELSSNRASVGLEVLAEKCPNLIHLNLSGNKIKDLSTIEPLKKLENLESLDLFTCEVTNLNNY
notes: as for B1
Consider B3, for which, in test [1], the binding result is recorded as “no binding”.

B4: V5-epitope tagged pp32 (pp32V5) (other, not shown: small tags and cut ends)
chain: MEMGRRIHLELRNRTPSDVKELVLDNSRSNEGKLEGLTDEFEELEFLSTINVGLTSIANLPKLNKLKKLELSDNRVSGGLEVLAEKCPNLTHLNLSGNKIKDLSTIEPLKKLENLKSLDLFNCEVTNLNDYRENVFKLLPQLTYLDGYDRDDKEAPDSDAEGYVEGLDDEEEDEDEEEYDEDAQVVEDEEDEDEEEEGEEEDVSGEEEEDEEGYNDGEVDDEEDEEELGEEERGQKRKREPEDEGEDDD
notes: Expressed by transient transfection in HEK 293 (or NIH 3T3) cells and tested in cell extracts; also called V5-tagged pp32
Consider B4, for which the binding result in test [2] is recorded as “no binding”; in test [3], “binds”.
